Reference: the supplement of paper PMC10065799, “High-throughput profiling of sequence recognition by tyrosine kinases and SH2 domains using bacterial peptide display” (eLife, 2023)

Tests used:
Grb2 SH2 = Grb2 SH2 (UniProt P62993); experiment: SH2 binding enrichment of the phosphorylated peptide, bacterial display (enrichment ratio); higher = better substrate or ligand; peptides without Tyr show the background
SHP2-C SH2 = experiment: as above
c-Src SH2 = experiment: as above
c-Abl (mouse) = experiment: phosphorylation enrichment, bacterial display (enrichment ratio); higher = better substrate or ligand; peptides without Tyr show the background
AncSZ = experiment: as above
Jak2 = Jak2 (UniProt O60674); experiment: as above
FGFR3 = FGFR3 (UniProt P22607); experiment: as above
EPHB1 = EPHB1 (UniProt P54762); experiment: as above
Fer (mouse) = experiment: as above
Hck = Hck (UniProt P08631); experiment: as above
Fyn = Fyn (UniProt P06241); experiment: as above
MERTK = MERTK (UniProt Q12866); experiment: as above
FGFR1 = FGFR1 (UniProt P11362); experiment: as above
EPHB2 = EPHB2 (UniProt P29323); experiment: as above
Fes = Fes (UniProt P07332); experiment: as above
c-Src = experiment: as above
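Throughout, for SH2 binding enrichment of the phosphorylated peptide, bacterial display: peptide library displayed on the E. coli surface as eCPX fusions, selected cells deep-sequenced, score is each peptide's frequency after selection divided by its frequency in the input.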
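Throughout, for phosphorylation enrichment, bacterial display: 11-residue human phosphosite peptides and single-mutation variants displayed on the E. coli surface, counted by deep sequencing, each peptide's frequency after selection divided by its frequency in the unselected input library; frequency after pTyr selection over input frequency; kinase dosed for 20-30% of maximal phosphorylation in three min.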

Chain of EPHB1 (P54762 whole entry, looked up): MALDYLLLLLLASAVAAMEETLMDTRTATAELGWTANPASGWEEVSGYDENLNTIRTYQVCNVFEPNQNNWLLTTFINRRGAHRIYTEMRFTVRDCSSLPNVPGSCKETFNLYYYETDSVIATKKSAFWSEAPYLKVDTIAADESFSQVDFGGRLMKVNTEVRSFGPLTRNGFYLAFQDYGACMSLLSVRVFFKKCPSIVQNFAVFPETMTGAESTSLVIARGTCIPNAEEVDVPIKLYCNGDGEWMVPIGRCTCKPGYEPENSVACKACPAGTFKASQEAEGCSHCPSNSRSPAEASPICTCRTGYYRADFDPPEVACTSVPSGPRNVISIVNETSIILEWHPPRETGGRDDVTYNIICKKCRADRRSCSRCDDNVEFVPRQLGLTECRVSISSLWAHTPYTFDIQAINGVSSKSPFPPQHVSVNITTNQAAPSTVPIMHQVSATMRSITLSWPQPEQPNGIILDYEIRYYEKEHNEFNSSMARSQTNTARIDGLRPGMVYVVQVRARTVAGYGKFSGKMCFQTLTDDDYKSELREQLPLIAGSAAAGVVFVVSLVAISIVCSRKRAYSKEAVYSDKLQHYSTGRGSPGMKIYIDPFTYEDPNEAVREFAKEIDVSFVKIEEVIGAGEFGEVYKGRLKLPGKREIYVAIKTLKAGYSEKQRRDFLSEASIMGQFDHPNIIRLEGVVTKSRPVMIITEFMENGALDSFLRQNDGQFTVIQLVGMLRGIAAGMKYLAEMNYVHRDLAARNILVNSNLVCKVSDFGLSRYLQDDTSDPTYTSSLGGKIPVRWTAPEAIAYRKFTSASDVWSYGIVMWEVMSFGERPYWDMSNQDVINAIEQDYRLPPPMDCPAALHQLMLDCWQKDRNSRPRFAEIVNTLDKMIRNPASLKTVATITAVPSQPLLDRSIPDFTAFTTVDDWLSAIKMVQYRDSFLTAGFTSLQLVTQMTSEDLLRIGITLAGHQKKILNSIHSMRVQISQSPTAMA
Chain of Fes (P07332 whole entry, looked up): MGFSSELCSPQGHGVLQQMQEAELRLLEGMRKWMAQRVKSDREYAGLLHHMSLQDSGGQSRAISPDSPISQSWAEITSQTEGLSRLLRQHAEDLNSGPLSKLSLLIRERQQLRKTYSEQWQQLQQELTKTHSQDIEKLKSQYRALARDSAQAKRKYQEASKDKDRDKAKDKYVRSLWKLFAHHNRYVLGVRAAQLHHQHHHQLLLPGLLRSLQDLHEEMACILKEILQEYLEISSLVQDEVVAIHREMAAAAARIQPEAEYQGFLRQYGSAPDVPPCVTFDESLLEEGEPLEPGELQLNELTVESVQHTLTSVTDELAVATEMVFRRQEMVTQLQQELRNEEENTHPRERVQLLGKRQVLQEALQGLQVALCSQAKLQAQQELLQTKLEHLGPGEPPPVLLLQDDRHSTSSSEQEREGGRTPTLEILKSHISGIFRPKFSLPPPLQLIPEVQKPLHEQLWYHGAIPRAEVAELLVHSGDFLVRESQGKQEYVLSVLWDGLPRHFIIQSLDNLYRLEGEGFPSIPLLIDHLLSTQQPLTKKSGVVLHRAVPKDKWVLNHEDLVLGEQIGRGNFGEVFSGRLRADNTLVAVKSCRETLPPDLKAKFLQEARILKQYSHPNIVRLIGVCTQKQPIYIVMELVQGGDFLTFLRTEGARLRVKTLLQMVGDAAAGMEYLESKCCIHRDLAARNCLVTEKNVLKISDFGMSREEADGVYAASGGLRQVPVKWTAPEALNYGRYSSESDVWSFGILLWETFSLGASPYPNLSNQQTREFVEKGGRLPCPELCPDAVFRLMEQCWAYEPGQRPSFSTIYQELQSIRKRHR
Chain of Fyn (P06241 whole entry, looked up): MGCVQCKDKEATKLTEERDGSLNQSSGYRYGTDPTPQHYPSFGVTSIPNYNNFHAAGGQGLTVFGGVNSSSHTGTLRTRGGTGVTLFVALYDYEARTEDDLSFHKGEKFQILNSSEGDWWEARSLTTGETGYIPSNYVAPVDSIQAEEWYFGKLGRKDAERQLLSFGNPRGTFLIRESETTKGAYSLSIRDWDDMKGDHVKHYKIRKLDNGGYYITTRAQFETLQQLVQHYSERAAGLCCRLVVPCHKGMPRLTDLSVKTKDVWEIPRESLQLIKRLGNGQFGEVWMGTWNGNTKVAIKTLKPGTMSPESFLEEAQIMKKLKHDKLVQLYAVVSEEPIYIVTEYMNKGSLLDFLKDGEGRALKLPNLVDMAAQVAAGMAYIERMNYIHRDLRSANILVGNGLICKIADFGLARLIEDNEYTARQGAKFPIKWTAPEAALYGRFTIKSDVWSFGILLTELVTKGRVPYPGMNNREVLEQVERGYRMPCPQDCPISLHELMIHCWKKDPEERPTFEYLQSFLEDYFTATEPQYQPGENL
Chain of Hck (P08631 whole entry, looked up): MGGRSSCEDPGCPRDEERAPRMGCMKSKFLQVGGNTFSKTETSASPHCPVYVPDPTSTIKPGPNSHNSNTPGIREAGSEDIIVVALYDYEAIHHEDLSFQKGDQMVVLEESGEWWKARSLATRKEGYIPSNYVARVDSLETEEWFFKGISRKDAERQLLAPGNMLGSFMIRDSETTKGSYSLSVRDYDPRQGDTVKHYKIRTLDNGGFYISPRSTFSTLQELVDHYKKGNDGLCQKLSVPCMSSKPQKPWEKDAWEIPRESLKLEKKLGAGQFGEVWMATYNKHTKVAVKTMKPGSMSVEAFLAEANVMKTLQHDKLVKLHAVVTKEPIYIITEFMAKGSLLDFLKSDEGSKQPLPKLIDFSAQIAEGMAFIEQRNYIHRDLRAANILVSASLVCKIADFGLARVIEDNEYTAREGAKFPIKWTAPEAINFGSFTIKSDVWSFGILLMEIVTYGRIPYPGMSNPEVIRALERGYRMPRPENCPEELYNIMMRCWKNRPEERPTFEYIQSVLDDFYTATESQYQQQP
Chain of EPHB2 (P29323 whole entry, looked up): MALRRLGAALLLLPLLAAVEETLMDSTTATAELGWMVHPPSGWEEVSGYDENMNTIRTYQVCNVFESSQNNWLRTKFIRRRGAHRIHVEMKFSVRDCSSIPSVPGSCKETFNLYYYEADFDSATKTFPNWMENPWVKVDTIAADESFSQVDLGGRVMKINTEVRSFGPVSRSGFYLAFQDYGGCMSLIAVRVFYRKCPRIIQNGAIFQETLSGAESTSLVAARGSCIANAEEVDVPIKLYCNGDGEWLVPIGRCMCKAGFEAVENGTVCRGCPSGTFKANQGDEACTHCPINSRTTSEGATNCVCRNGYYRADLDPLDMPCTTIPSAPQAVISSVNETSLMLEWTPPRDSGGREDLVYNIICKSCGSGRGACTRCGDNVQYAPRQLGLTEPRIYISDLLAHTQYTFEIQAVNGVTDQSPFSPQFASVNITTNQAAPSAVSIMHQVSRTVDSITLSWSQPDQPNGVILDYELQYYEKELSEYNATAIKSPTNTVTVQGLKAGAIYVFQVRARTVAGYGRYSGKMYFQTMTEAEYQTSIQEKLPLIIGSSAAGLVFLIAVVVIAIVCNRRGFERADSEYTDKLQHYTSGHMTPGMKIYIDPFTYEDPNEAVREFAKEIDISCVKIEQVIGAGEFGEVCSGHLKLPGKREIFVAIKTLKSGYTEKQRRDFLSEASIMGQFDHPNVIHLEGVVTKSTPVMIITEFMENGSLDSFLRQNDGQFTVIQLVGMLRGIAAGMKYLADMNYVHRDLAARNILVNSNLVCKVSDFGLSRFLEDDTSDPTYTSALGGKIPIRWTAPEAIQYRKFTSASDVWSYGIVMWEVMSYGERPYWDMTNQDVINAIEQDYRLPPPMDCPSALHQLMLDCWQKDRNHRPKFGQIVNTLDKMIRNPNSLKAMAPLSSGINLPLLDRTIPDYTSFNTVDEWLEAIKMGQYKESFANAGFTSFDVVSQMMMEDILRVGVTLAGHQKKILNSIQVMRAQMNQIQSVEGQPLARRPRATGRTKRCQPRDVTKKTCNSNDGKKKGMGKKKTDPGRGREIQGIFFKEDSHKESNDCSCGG
Chain of Jak2 (O60674 whole entry, looked up): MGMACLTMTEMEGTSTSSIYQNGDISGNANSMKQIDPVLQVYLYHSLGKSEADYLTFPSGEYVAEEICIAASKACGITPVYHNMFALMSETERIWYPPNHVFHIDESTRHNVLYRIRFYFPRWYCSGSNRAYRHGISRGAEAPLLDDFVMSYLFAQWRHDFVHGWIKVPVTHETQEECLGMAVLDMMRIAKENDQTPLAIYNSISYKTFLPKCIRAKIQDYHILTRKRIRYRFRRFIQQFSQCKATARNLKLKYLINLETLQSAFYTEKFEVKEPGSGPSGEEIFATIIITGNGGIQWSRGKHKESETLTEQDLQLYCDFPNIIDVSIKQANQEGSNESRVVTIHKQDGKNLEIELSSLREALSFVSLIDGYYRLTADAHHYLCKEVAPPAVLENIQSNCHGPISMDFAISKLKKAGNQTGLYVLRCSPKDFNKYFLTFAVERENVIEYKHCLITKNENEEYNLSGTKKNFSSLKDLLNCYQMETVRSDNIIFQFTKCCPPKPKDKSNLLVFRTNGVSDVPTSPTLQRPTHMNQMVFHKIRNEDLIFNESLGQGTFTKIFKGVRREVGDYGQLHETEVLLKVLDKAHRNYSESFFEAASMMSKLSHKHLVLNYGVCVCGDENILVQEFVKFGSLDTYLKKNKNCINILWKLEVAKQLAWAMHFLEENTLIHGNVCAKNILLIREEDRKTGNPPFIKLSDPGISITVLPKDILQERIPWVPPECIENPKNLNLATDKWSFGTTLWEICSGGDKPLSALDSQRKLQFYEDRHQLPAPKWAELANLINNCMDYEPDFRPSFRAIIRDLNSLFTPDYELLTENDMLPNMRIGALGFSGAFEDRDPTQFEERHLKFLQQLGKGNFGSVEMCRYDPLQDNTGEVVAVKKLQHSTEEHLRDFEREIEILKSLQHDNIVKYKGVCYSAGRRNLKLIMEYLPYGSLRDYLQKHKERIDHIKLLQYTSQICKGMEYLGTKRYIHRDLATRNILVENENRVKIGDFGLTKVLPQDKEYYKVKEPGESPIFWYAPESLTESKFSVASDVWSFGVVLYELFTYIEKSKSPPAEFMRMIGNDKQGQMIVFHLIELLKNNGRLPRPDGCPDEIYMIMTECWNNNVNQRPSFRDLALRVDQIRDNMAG

Row | Sequence | SH2 binding enrichment (Grb2 SH2) | SH2 binding enrichment (SHP2-C SH2) | SH2 binding enrichment (c-Src SH2) | phosphorylation enrichment (c-Abl (mouse)) | phosphorylation enrichment (AncSZ) | phosphorylation enrichment (Jak2) | phosphorylation enrichment (FGFR3) | phosphorylation enrichment (EPHB1) | phosphorylation enrichment (Fer (mouse)) | phosphorylation enrichment (Hck) | phosphorylation enrichment (Fyn) | phosphorylation enrichment (MERTK) | phosphorylation enrichment (FGFR1) | phosphorylation enrichment (EPHB2) | phosphorylation enrichment (Fes) | phosphorylation enrichment (c-Src)
1 | ESSKAYERALS [TTC37_Y1074] | 0.787 | 0.571 | 0.468 | 0.618 | 0.77 | 0.594 | 0.476 | 0.413 | 0.418 | 0.444 | 0.412 | 0.417 | 0.423 | 0.624 | 0.816 | 0.409
2 | KRLWDYGMSSS [F8_Y1728_E1723K] | 0.971 | 0.57 | 0.457 | 0.536 | 0.592 | 0.666 | 0.511 | 0.429 | 0.339 | 0.337 | 0.341 | 0.359 | 0.399 | 0.461 | 0.706 | 0.394
3 | RFLRGYQQDAF [HLA-A_Y137_R138Q_YF] | 0.58 | 0.581 | 0.374 | 0.81 | 1.11 | 0.965 | 0.677 | 0.796 | 0.518 | 0.693 | 0.685 | 0.558 | 0.803 | 0.518 | 0.684 | 0.603
4 | PAIYTYDEYKK [COL8A2_Y648_T645I] | 0.778 | 0.513 | 2.29 | 1.04 | 1.93 | 1.27 | 2.2 | 3.61 | 9.34 | 8.13 | 18.6 | 13.5 | 2.04 | 3.29 | 1.95 | 9.14
5 | YSTDCYRVGGH [NTRK2_Y707_Y706C] | 0.891 | 0.735 | 0.896 | 0.79 | 0.733 | 0.639 | 0.683 | 0.554 | 0.414 | 0.45 | 0.438 | 3.67 | 0.594 | 0.555 | 0.827 | 0.415
6 | AVLSLYASGCT [ACTA2_Y145_R149C] | 0.861 | 0.547 | 0.379 | 0.965 | 1.2 | 1.2 | 0.811 | 0.825 | 0.576 | 0.634 | 0.538 | 0.432 | 0.512 | 0.658 | 1.39 | 0.46
7 | GRQGIYTKNER [GPR143_Y231_E233K] | 1.01 | 0.802 | 0.493 | 0.422 | 0.422 | 0.46 | 0.371 | 0.357 | 0.556 | 0.327 | 0.386 | 0.359 | 0.447 | 0.329 | 0.466 | 0.327
8 | LRFEVYGGENE [STOX1_Y610_YF] | 0.723 | 0.842 | 0.536 | 0.925 | 1.15 | 1.29 | 0.774 | 0.56 | 0.483 | 0.5 | 0.539 | 0.454 | 0.621 | 0.855 | 1.55 | 0.5
9 | NQILPYIKELV [PPP2R1B_Y341] | 1.01 | 0.684 | 0.55 | 0.72 | 1.01 | 1.08 | 0.774 | 0.509 | 0.528 | 0.52 | 0.43 | 0.456 | 0.579 | 0.611 | 1.14 | 0.477
10 | GFQPDYGQPAG [SYP_Y278_YF] | 0.836 | 0.519 | 0.56 | 0.509 | 0.583 | 0.554 | 0.483 | 0.443 | 0.206 | 0.728 | 0.435 | 0.404 | 0.478 | 0.431 | 0.686 | 0.294
11 | EKKDIYKAGEQ [CFH_Y1008_V1007I] | 0.826 | 0.648 | 0.365 | 0.5 | 0.493 | 0.488 | 0.364 | 0.353 | 0.362 | 0.373 | 0.341 | 0.362 | 0.327 | 0.424 | 0.696 | 0.431
12 | NYCPGYNNFYN [USH2A_Y467_R464C] | 1.68 | 0.821 | 2.35 | 0.761 | 0.988 | 1.12 | 0.791 | 0.888 | 0.588 | 0.613 | 0.64 | 0.566 | 0.638 | 0.753 | 1.06 | 1.26
13 | AGAKTYKMSMA [CPS1_Y309] | 0.688 | 0.819 | 0.586 | 0.383 | 0.389 | 0.527 | 0.426 | 0.328 | 0.406 | 0.374 | 0.402 | 0.364 | 0.309 | 0.264 | 0.405 | 0.399
14 | YETSHYPASPD [CTNND2_Y1217] | 0.739 | 0.723 | 0.76 | 0.528 | 0.858 | 0.7 | 0.626 | 0.382 | 0.484 | 0.421 | 0.434 | 0.42 | 0.454 | 0.512 | 0.771 | 0.489
15 | NFRTTYVNANE [KCNH2_Y475] | 15.1 | 1.48 | 2.03 | 0.61 | 0.892 | 1.29 | 0.719 | 0.404 | 0.551 | 0.558 | 0.444 | 0.482 | 0.498 | 0.464 | 1.27 | 0.589
